What was measured:
Format in all cases: cell-based
[1] = test system: P. aeruginosa strain PAO1; assay: Growth of free swimming P. aeruginosa in biofilm medium containing lactoferrin (plate counting)
Method: (§1) P. aeruginosa strain PAO1 containing the GFP plasmid pMRP9-1 was used for most studies. Where indicated, an isogenic surface motility mutant (a PA01 deletion mutant from J. Kato (Department of Fermentation Technology, Hiroshima University, Hiroshima, Japan.) containing pMRP9-1 was used. Biofilm medium consisted of 1% Trypticase Soy Broth (Difco, Detroit, Mich.). In the growth experiments, approximately 10^3 bacteria from an overnight culture were added to 5 ml of biofilm medium containing the indicated concentrations of lactoferrin (Sigma Chemical Co., St Louis, Mo.). Cultures were incubated in acid-washed tubes at 37° C. with shaking. Colony-forming units were determined by plate counting. […] P. aeruginosa with pMRP9-1 was also grown in lactoferrin-containing effluent medium from flow cells. After one day of bacterial growth, effluent was collected on ice, filter sterilized, and growth was assessed as above.

P. aeruginosa [2] = assay: Dividing times of attached bacteria in flow cells (time-lapse microscopy)
Method: (§2) For studies of biofilm formation, wild-type P. aeruginosa PAO1 and the surface motility mutant were grown in flow cells similar to those described previously; the size of the flow channel was 5×35×1 mm. An overnight culture diluted to 10^7 cells per ml in fresh biofilm medium was used as the inoculum and flow was arrested for 45 min. Flow of biofilm medium with and without 20 μg/ml of Fe-unsaturated or Fe-saturated lactoferrin or conalbumin (Sigma Chemical Co.) was then initiated at a rate of 170 μl/min. Images were obtained using a Biorad (Hercules, Calif.) scanning confocal microscope.
(§3) Bacterial movement was assessed by using time-lapse images acquired at 1 min intervals. Motion of bacterial cells was traced visually by following individual cells. VOXblast software (VayTek, Inc, Fairfield, Iowa) was used to obtain the X-Y coordinates of bacterial cells.
(§4) Bacterial behaviors were classified as follows. Squatters remained within a 15 μm circle drawn around the point of parental cell division until the time of its cell division. Ramblers remained attached to the growth surface, but moved outside the circle. Flyers detached and were carried away by media flow. Dividing times of attached bacteria were measured by counting the number of frames between cell divisions; 60 bacterial divisions were observed and the dividing times were averaged.

[3] = test system: wild-type P. aeruginosa PAO1; assay: Biofilm formation in continuous culture flow cells (confocal microscopy); settings: for effect on biofilm development / formation / effect on biofilm formation, iron-saturated protein: 20 μg/ml, flow cells; for effect on biofilm development / formation: Fe-unsaturated protein, up to day 7; for effect on biofilm formation, iron-saturated protein: Fe-saturated protein
Method: as §2

P. aeruginosa [4] = assay: Bacterial movement and behaviors (squatters, ramblers, flyers) in flow cells; settings: in the presence of lactoferrin; 40 parental cells, three generations; FIG. 3c,d
Method: as §3, §4

[5] = test system: P. aeruginosa surface motility mutant (PA01 deletion mutant); assay: Biofilm formation of surface motility mutant in flow cells; settings: in the presence of lactoferrin, FIG. 4e,f
Method: as §1

P. aeruginosa biofilms = assay: Antimicrobial susceptibility of biofilms grown in rotating disk reactor (viable cell counts); settings: Fe-unsaturated conalbumin during 48 h biofilm growth
Method: P. aeruginosa biofilms for susceptibility tests were grown in a rotating disk reactor. Fe-unsaturated conalbumin (Sigma Chemical Co.) was added to standard biofilm medium at indicated concentrations for the duration of biofilm growth. Discs and attached bacteria were then washed 3 times in distilled water, and treated for 4 h in 1 ml of H2O2 (Fisher Scientific) or tobramycin (Eli Lilly, Indianapolis, Ind.) at indicated concentrations. The treated discs were washed 3 times, and bacteria were removed and dispersed in 2 ml sterile PBS by homogenization (Brinkman Homogenizer, model 10/35). Viable cell numbers were enumerated by plate counting.

| Molecule | effect on growth rate of free swimming P. aeruginosa PAO1 ([1]; 20 μg/ml lactoferrin (sub-inhibitory), FIG. 1) | concentration of lactoferrin that inhibited bacterial growth ([1]; biofilm medium, 37° C. with shaking, varied for different lots) | number of doublings in lactoferrin-containing effluent (conditioned) medium from flow cells ([1]; in 22 h, spent lactoferrin-treated medium) | increase of dividing time of attached cells (P. aeruginosa [2]; 20 μg/ml lactoferrin vs. without) | effect on growth of attached cells (P. aeruginosa [2]; concentration of lactoferrin that prevents biofilm formation) | dividing time of attached cells (P. aeruginosa [2]; with 20 μg/ml lactoferrin, average of 60 divisions) | effect on biofilm development / formation [3] | effect on biofilm development / formation ([3]; listed as Lactoferrin) | effect on structure of mature biofilms ([3]; 5 day-old biofilms exposed to lactoferrin-containing medium for 48 h) | proportion of bacteria as squatters, ramblers, flyers (P. aeruginosa [4]) | biofilm formation by surface motility mutant [5] | effect on biofilm formation, iron-saturated protein [3] | effect of growth in conalbumin on biofilm resistance to H2O2 (P. aeruginosa biofilms; then H2O2 4 h) | effect of growth in conalbumin on biofilm resistance to tobramycin (P. aeruginosa biofilms; then tobramycin 4 h) |
| --- | --- | --- | --- | --- | --- | --- | --- | --- | --- | --- | --- | --- | --- | --- |
| lactoferrin (protein, UniProt P02788 20-710, looked up, known iron chelating protein (Sigma Chemical Co.), proteinaceous metal chelator) Lactotransferrin: GRRRSVQWCAVSQPEATKCFQWQRNMRKVRGPPVSCIKRDSPIQCIQAIAENRADAVTLDGGFIYEAGLAPYKLRPVAAEVYGTERQPRTHYYAVAVVKKGGSFQLNELQGLKSCHTGLRRTAGWNVPIGTLRPFLNWTGPPEPIEAAVARFFSASCVPGADKGQFPNLCRLCAGTGENKCAFSSQEPYFSYSGAFKCLRDGAGDVAFIRESTVFEDLSDEAERDEYELLCPDNTRKPVDKFKDCHLARVPSHAVVARSVNGKEDAIWNLLRQAQEKFGKDKSPKFQLFGSPSGQKDLLFKDSAIGFSRVPPRIDSGLYLGSGYFTAIQNLRKSEEEVAARRARVVWCAVGEQELRKCNQWSGLSEGSVTCSSASTTEDCIALVLKGEADAMSLDGGYVYTAGKCGLVPVLAENYKSQQSSDPDPNCVDRPVEGYLAVAVVRRSDTSLTWNSVKGKKSCHTAVDRTAGWNIPMGLLFNQTGSCKFDEYFSQSCAPGSDPRSNLCALCIGDEQGENKCVPNSNERYYGYTGAFRCLAENAGDVAFVKDVTVLQNTDGNNNEAWAKDLKLADFALLCLDGKRKPVTEARSCHLAMAPNHAVVSRMDKVERLKQVLLHQQAKFGRNGSDCPDKFCLFQSETKNLLFNDNTECLARLHGKTTYEKYLGPQYVAGITNLKKCSTSPLLEACEFLRK | did not affect the growth rate | ≥ 30 µg/mL | 6 times | 27% | only slightly reduced the growth of attached cells | 127 min | differentiated biofilm formation was completely blocked | disrupted this pattern of development | failed to alter their structure | a significantly larger proportion of cells exhibited rambling behavior and fewer were squatters | formed microcolonies and irregularly shaped biofilms in both the absence and presence of lactoferrin |  |  |  |
| lactoferrin (protein, UniProt P02788 20-710, looked up, iron-saturated, lactoferrin in the iron-saturated state) Lactotransferrin: GRRRSVQWCAVSQPEATKCFQWQRNMRKVRGPPVSCIKRDSPIQCIQAIAENRADAVTLDGGFIYEAGLAPYKLRPVAAEVYGTERQPRTHYYAVAVVKKGGSFQLNELQGLKSCHTGLRRTAGWNVPIGTLRPFLNWTGPPEPIEAAVARFFSASCVPGADKGQFPNLCRLCAGTGENKCAFSSQEPYFSYSGAFKCLRDGAGDVAFIRESTVFEDLSDEAERDEYELLCPDNTRKPVDKFKDCHLARVPSHAVVARSVNGKEDAIWNLLRQAQEKFGKDKSPKFQLFGSPSGQKDLLFKDSAIGFSRVPPRIDSGLYLGSGYFTAIQNLRKSEEEVAARRARVVWCAVGEQELRKCNQWSGLSEGSVTCSSASTTEDCIALVLKGEADAMSLDGGYVYTAGKCGLVPVLAENYKSQQSSDPDPNCVDRPVEGYLAVAVVRRSDTSLTWNSVKGKKSCHTAVDRTAGWNIPMGLLFNQTGSCKFDEYFSQSCAPGSDPRSNLCALCIGDEQGENKCVPNSNERYYGYTGAFRCLAENAGDVAFVKDVTVLQNTDGNNNEAWAKDLKLADFALLCLDGKRKPVTEARSCHLAMAPNHAVVSRMDKVERLKQVLLHQQAKFGRNGSDCPDKFCLFQSETKNLLFNDNTECLARLHGKTTYEKYLGPQYVAGITNLKKCSTSPLLEACEFLRK |  |  |  |  |  |  |  |  |  |  |  | did not prevent P. aeruginosa biofilm formation |  |  |
| conalbumin (protein, UniProt P02789 20-705, looked up, a lactoferrin-like chicken egg host defense protein; iron chelating protein, tested Fe-unsaturated and Fe-saturated) Ovotransferrin: APPKSVIRWCTISSPEEKKCNNLRDLTQQERISLTCVQKATYLDCIKAIANNEADAISLDGGQAFEAGLAPYKLKPIAAEVYEHTEGSTTSYYAVAVVKKGTEFTVNDLQGKTSCHTGLGRSAGWNIPIGTLLHRGAIEWEGIESGSVEQAVAKFFSASCVPGATIEQKLCRQCKGDPKTKCARNAPYSGYSGAFHCLKDGKGDVAFVKHTTVNENAPDQKDEYELLCLDGSRQPVDNYKTCNWARVAAHAVVARDDNKVEDIWSFLSKAQSDFGVDTKSDFHLFGPPGKKDPVLKDLLFKDSAIMLKRVPSLMDSQLYLGFEYYSAIQSMRKDQLTPSPRENRIQWCAVGKDEKSKCDRWSVVSNGDVECTVVDETKDCIIKIMKGEADAVALDGGLVYTAGVCGLVPVMAERYDDESQCSKTDERPASYFAVAVARKDSNVNWNNLKGKKSCHTAVGRTAGWVIPMGLIHNRTGTCNFDEYFSEGCAPGSPPNSRLCQLCQGSGGIPPEKCVASSHEKYFGYTGALRCLVEKGDVAFIQHSTVEENTGGKNKADWAKNLQMDDFELLCTDGRRANVMDYRECNLAEVPTHAVVVRPEKANKIRDLLERQEKRFGVNGSEKSKFMMFESQNKDLLFKDLTKCLFKVREGTTYKEFLGDKFYTVISSLKTCNPSDILQMCSFLEGK |  |  |  |  |  |  | prevented biofilm formation in the iron-unsaturated state |  |  |  |  | not when iron-saturated | decreased resistance to both agents in a dose-dependent manner | decreased resistance to both agents in a dose-dependent manner |

— patent publication US8343911B2, “Methods of inhibiting and treating bacterial biofilms by metal chelators” (University of Iowa Research Foundation, priority 2002, dated 2013)
